This is an account of results in the DeepSol protein solubility set.

A short description of this data set: soluble on expression in E. coli; label from the status in PepcDB or PDB records.
On to “VTSSPFKTIKSDEIFAAAQKLMPGGVSSPVRAFKSVGGQPIVFDRVKDAYAWDVDGNRYIDYVGTWGPAICGHAHPEVIEALKVAMEKGTSFGAPCALENVLAEMVNDAVPSIEMVRFVNSGTEACMAVLRIMRAYTGRDKIIKFEGCYHGHADMFLVKAGSGVATLGLPSSPGVPKKTTANTLTTPYNDLEAVKALFAENPGEIAGVILEPIVGNSGFIVPDAGFLEGLREITLEHDALLVFDEVMTGFRIAYGGVQEKFGVTPDLTTLGKIIGGGLPVGAYGGKREIMQLVAPAGPMYQAGTLSGNPLAMTAGIKTLELLRQPGTYEYLDQITKRLSDGLLAIAQETGHAACGGQVSGMFGFFFTEGPVHNYEDAKKSDLQKFSRFHRGMLEQGIYLAPSQFEAGFTSLAHTEEDIDATLAAARTVMSAL”, for which the “soluble on expression in E. coli” value was “soluble”.

“MSLLLGVENGRITQLGDAELLAGELDISVKIHDYTGKIICPGFVDTHVHYPQLAIIGSYGESLLHWLENYAFDEEKKFNDADHSLKTANHFLDELLRCGTTTAQVFGTVHPESVEGFFTAAEHRDLRMICGKVLMDRNGPLGLLDTPETSYVDSKNLIERWHGRSRLRYAVSPRFAPTSTPDQLATARQLLREYPGTHLQTHLSEDQEEIKWVKSLFPHCKNYLDIYKRAGLLGKRSTFAHCLHLTEADWEMLEHEGCSVAFCPSSNLFLGSGLFDLPRPQFANVKVGIGTDVGAGTSLSMLQTIADAYKTQRLAGNDLSPLSGLYMATLGGAKSLDCDADIGNFKIGKEADFTVLDPESTPLMSYRMQNCKSLEERLAVIVLLGDDRAILATYANGRCVHDRDIDEESEGHHHHHH”: the “soluble on expression in E. coli” value is recorded as “soluble”.

Turning to “MGSDKIHHHHHHLKQFRRNYSDPNRGPTGKGVAKYQALKHTCQVCPSKMKCCPKADARKITREEHEDARQVARKIAETKQYVISMRLKKKVEMLFAHLKRILGLGRLRLRDPSRDHGYAMTLPGTACSASDEFLLAATAQNLRKLAKTFPAPQQTRKA”, the “soluble on expression in E. coli” value is listed as “not soluble”.

“MSLNDDYPVVLAAPTGRASKRLQESTGLEAMTIHRLIGWNQDTKPEDILENEINARLIIIDEMSMVDTWLFHQFLSAVPLDAQLIFVGDEDQLPSVGPGQVFKDLIESKAIPRVNLTEVYRQQDGSSIIELAHRMKLGQKIDITQRFHDRSFINCQANQIPTVVEKVVTSAVNKGYTMADIQVLAPMYKGNAGIKRLNQVLQDILNPKKKDTREIEFGDVVFRKGDKVLQLVNRPNDNIFNGDIGVIVGIFWAKENALNKDVLVVDFEGNEITFTKQDMMELTHAYCTSIHKSQGSEFPIVIMPIVKQYFRMLQRPILYTGLTRAKTSLVLLGDPEAFDIGLKTNGQARLTQLCTLLKNYFNSEGHHHHHH”: the “soluble on expression in E. coli” value is “not soluble”.

Take “SNAVRGFLIVGNKAFTQPFSLNDLPGAGRMDVLCRCTSQALFISHGIRRDVEVYLLLLGPPSPPKSILIKGDEVRRMSPDERNVAGHIKKALAVECGKSWKKVHSGVYVSRKGLEELIEELSEKYSIIYLKEDGVDISNAQLPPNPLFVIGDHEGLTEEQEKVVERYAALKLSLSPLSLLAEQCVVIAHHHLDRLQF”: the “soluble on expression in E. coli” value was “soluble”.

In the case of “PDIHHPSDFSIQKLSKDEDNYVAWKIRFRSFLRVTKKFGFIDGTLPKPDPFSPLYQPWEQCNAMVMYWLMNSMTDKLLESVMYAETAHKMWEDLRRVFVPCVDLKIYQLRRRLATLRQGGDSVEEYFGKLSKVWMELSEYAPIPECKCGGCNCECTKRAEEAREKEQRYEFLMGLKLNQGFEAVTTKIMFQKPPPSLHEAFAMVKDAESMMKWYSR”, the “soluble on expression in E. coli” value is “not soluble”.

For the sequence “MGSDKIHHHHHHMSVVIGYYGKNGAVIAGDKRNLLFNGIESNRAKLEEVLYSGEIKNDEELFKKASEFEVTVHINDTREKVKSLGNLLSGEVVSIGKDSKRRRMYLTKEKCAIIDIENDQITNKSVKTGSGIVVFGNRYVKHFVESEIKKHVQKLLKMSAREIRDLFEKILKNIENATLSDTFEYYVVEAGEPEFEKAVNKDLDDLFNYRHDLSIKMAEMQILTMIAEKIVKIGDVGVIKNGTLVLYDEFLAINKICPEPEIYSEIEITGEFIEGDIITIDNESLKVKRTGSPVAVQKIICKK”, the “soluble on expression in E. coli” value is recorded as “not soluble”.

Consider “MGSDKIHHHHHHMNYVKSKQRVADHGEVFTPAWLVEAMIDLVKDETERIDARFLEPACGSGNFLVPILQRKLAAVERKFGKSNFEKQHYALFAVMCTYGIELLADNIAECRANMLEIFADYLTLDESDELYRAAIYVLSQNLVHGDALKMRTSDGQPIAFAEWGYLGKGKFQRRDFRLDSLAMSSTFSVEGSLFAHLGKHEIFTPTRTYPPMTVSELAARAAEANL”, for which the “soluble on expression in E. coli” value is on record as “not soluble”.

Turning to “RPLFAREGGIYAVLVCMQEYKTSVLVQQAGLAALKMLAVASSSEIPTFVTGRDSIHSLFDAQMTREIFASIDSATRPGSESLLLTVPAAVILMLNTEGCSSAARNGLLLLNLLLCNHHTLGDQIITQELRDTLFRHSGIAPRTEPMPTTRTILMMLLNRYSEPPGSPERAALETPIIQGQDGSPELLIRSLVGGPSAELLLDLERVLCREGSPGGAVRPLLKRLQQETQPFLLLLRTLDAPGPNKTLLLSVLRVITRLLDFPEAMVLPWHEVLEPCLNCLSGPSSDSEIVQELTCFLHRLASMHKDYAVVLCCLGAKEILSKVLDKHSAQLLLGCELRDLVTECEKYAQLYSNLTSSILAGCIQMVLGQIEDHRRTHQPINIPFFDVFLRHLCQGSSVEVKEDKCWEKVEVSSNPHRASKLTDHNPKTYWESNGSTGSHYITLHMHRGVLVRQLTLLVASEDSSYMPARVVVFGGDSTSCIGTELNTVNVMPSASRVILLENLNRFWPIIQIRIKRCQQGGIDTRVRGVEVLGPKPTFWPLFREQLCRRTCLFYTIRAQAWSRDIAEDHRRLLQLCPRLNRVLRHEQNFADRFLPDDEAAQALGKTCWEALVSPLVQNITSPDAEGVSALGWLLDQYLEQRETSRNPLSRAASFASRVRRLCHLLVHVEPPPGPSPEPSTRPFSKNSKGRDRSPAPSPVLPSSSLRNITQCWLSVVQEQVSRFLAAAWRAPDFVPRYCKLYEHLQRAGSELFGPRAAFMLALRSGFSGALLQQSFLTAAHMSEQFARYIDQQIQGGLIGGAPGVEMLGQLQRHLEPIMVLSGLELATTFEHFYQHYMADRLLSFGSSWLEGAVLEQIGLCFPNRLPQLMLQSLSTSEELQRQFHLFQLQRLDKLFLEQEDEEEKRLEEEEEEEEEEEAEKELFIEDPSPAISILVLSPRCWPVSPLCYLYHPRKCLPTEFCDALDRFSSFYSQSQNHPVLDMGPHRRLQWTWLGRAELQFGKQILHVSTVQMWLLLKFNQTEEVSVETLLKDSDLSPELLLQALVPLTSGNGPLTLHEGQDFPHGGVLRLHEPGPQRSGEALWLIPPQAYLNVEKDEGRTLEQKRNLLSCLLVRILKAHGEKGLHIDQLVCLVLEAWQKGPNPPGTLGHTVAGGVACTSTDVLSCILHLLGQGYVKRRDDRPQILMYAAPEPMGPCRGQADVPFCGSQSETSKPSPEAVATLASLSCLQAAP”, the “soluble on expression in E. coli” value was “soluble”.

With “MKYSLCTISFRHQLISFTDIVQFAYENGFEGIELWGTHAQNLYMQEYETTERELNCLKDKTLEITMISDYLDISLSADFEKTIEKCEQLAILANWFKTNKIRTFAGQKGSADFSQQERQEYVNRIRMICELFAQHNMYVLLETHPNTLTDTLPSTLELLGEVDHPNLKINLDFLHIWESGADPVDSFQQLRPWIQHYHFKNISSADYLHVFEPNNVYAAAGNRTGMVPLFEGIVNYDEIIQEVRDTDHFASLEWFGHNAKDILKAEMKVLTNRNLEVVTSENLYFQ”, the “soluble on expression in E. coli” value is reported as “soluble”.

For the sequence “GPGSMLRRLGSTLFCSVTLANGTVLKGDLNPHNPSLLLKGITILPDGRVYSGSYDATSGFPLPGSQLEEDGDLYRGDFNTQWQREGRGEAWLADGTHYAGVFKNDEITEGIVRIPNGTTEVVFEGTLSDEAFVKGKLTQSDFVYEGEFSDNEPHGKGKLVFATGAVQEGTFFHGKLHGPDCKMKLDGGFVYVGEFLDGQIRRGTLYTPTYTYEGEFNEHGRAQGEGTQTYLINEPRLTFTGIWTNGALVRGVCMDEYGSAVDWQNNDELQAKVLGGATGKGSESVGLNSYCSARMKEAAQLHSDMQRSYAEDAEAVAQSTGRFPTKMDLGYEGSIAHENEAVMQAQQRQMQDIERSKEVLSDRARDFGPIASGSRGNIIGEIDENMARIQFRRQVGAEEVSAARVDEQFERFMKSFKKPSPLPGAPAQVAQKLNIDGNAPWKAFTPLK”, the “soluble on expression in E. coli” value is recorded as “soluble”.
